Measurements as given in article PMC7489885 (Cell, 2020).

Biological target: SARS-CoV-2 RBD (residues 319-541) with an N-terminal His6 tag (SARS-CoV-2, UniProt P0DTC2)
Test: crystal structure

B1: BD-236 Fab (Fab, V domains shown)
VH: EVQLVESGGGLIQPGGSLRLSCAASGITVSSNYMSWVRQAPGKGLEWVSVIYSGGSTDYADSVKGRFTISRDKSKNTLYLQMNSLRAEDTAVYYCARDLGEAGGMDVWGQGTTVTVSS
VL: AIQLTQSPSSLSASVGDRVTITCRASQGISSYLAWYQQKPGKAPKLLIYAASTLQSGVPSRFSGSGSGTDFTLTISSLQPEDFATYYCQQLNSYPPAFGGGTKVEIK
- binding result: binds
